Residue numbers refer to the chain shown, from its start.

Usually Kd stands for the concentration at which binding is half-saturated. Lower therefore signals a tighter complex. Usually koff stands for a measure of how fast the partners let go of each other. A low value points to a long-lived complex. What is called kon is a measure of how fast the partners come together. A higher kon goes with fast association.

The target in experiment [1] is Human EphA2-Fc fusion protein (human EphA2 fused with the Fc portion of a human IgG1) (human) (UniProt P29317). The experiment in a line: single point capture ELISA, 500 ng goat anti-human Fab; same plate as VH-7E8/VL-8G7. Background: An ELISA detects its analyte on a solid surface through an enzyme-linked reagent.
Experiment [2] shares this target. Put plainly: single point capture ELISA, 500 ng goat anti-human Fab, biotinylated EphA2-Fc 300 ng/well.
For experiment [3] the target is unchanged. The experiment in a line: single point capture ELISA, 500 ng goat anti-human Fab; same plate as VH-233/VL-8G7.
Experiment [4] has the same target. The experiment in a line: single point capture ELISA, 20 ng goat anti-human Fab, biotinylated EphA2-Fc 300 ng/well.
For experiment [5] the target is unchanged. The experiment in a line: single point capture ELISA, 100 ng goat anti-human Fab, biotinylated EphA2-Fc 300 ng/well.
Experiment [6] has the same target. Put plainly: single point capture ELISA, 500 ng goat anti-human Fab; same plate as VH-233/VL-12C8.
Experiment [7] shares this target. The experiment in a line: single point capture ELISA, 500 ng goat anti-human Fab, biotinylated EphA2-Fc 300 ng/well. The source holds these as a separate data set.
The target is the same in experiment [8]. Put plainly: single point capture ELISA, 500 ng goat anti-human Fab; same plate as VH-2G6/VL-12C8.
Experiment [9] has the same target. The experiment in a line: single point capture ELISA, 500 ng goat anti-human Fab, biotinylated EphA2-Fc 300 ng/well. The source holds these as a separate data set.
Experiment [10] shares this target. Put plainly: single point capture ELISA, 500 ng goat anti-human Fab; same plate as VH-6H11/VL-8G7.
The target is the same in experiment [11]. Put plainly: single point capture ELISA, 1 µg goat anti-human Fd, biotinylated EphA2-Fc 300-600 ng/well.
Experiment [12] addresses T1, Human EphA2-Fc fusion protein (human EphA2 fused with the Fc portion of a human IgG1) (human, UniProt P29317 24-534, limits assumed).
T1 construct: also called biotinylated human EphA2-Fc; not shown: Fc portion of a human IgG1
Put plainly: BIAcore, human IgG1 format on immobilized EphA2-Fc.

The target of experiment [13] is T1, Human EphA2-Fc fusion protein (human …). The experiment in a line: SPR (BIAcore 3000), EphA2-Fc coupled to CM5 chip, IgG in solution, koff/kon. The method, then:
(§1) IgGs were diluted in 0.01 M HEPES pH 7.4 containing 0.15 M NaCl, 3 mM EDTA and 0.005% P20. All subsequent dilutions were made in the same buffer. All binding experiments were performed at 25° C. with IgG concentrations typically ranging from 100 nM to 0.2 nM at a flow rate of 75 μL/min; data were collected for approximately 25 min and one 1-min pulse of 1 M NaCl, 50 mM NaOH was used to regenerate the surfaces. IgGs were also flowed over an uncoated cell and the sensorgrams from these blank runs subtracted from those obtained with EphA2-Fc-coupled chips. Data were fitted to a 1:1 Langmuir binding model. This algorithm calculates both the kₒₙ and the koff, from which the apparent equilibrium dissociation constant, KD, is deduced as the ratio of the two rate constants (koff/kₒₙ).
(In SPR one partner is held on a chip, and binding of the other changes the refractive index at the surface.)

Experiment [14] shares this target. Put plainly: SPR (BIAcore 3000), EphA2-Fc coupled to CM5 chip, IgG in solution, 1:1 Langmuir fit. The procedure:
as §1

The target is the same in experiment [15]. Put plainly: SPR (BIAcore 3000), EphA2-Fc coupled to CM5 chip (~500 RU), IgG in solution, koff/kon. The method, then:
(§2) EphA2-Fc was coupled to the dextran matrix of a CM5 sensor chip (Pharmacia Biosensor) using an Amine Coupling Kit as described (B. Johnsson et al., 1991, Anal. Biochem. 198: 268-277) at a surface density of approximately 500 RU. IgGs were diluted in 0.01 M HEPES pH 7.4 containing 0.15 M NaCl, 3 mM EDTA and 0.005% P20. All subsequent dilutions were made in the same buffer. All binding experiments were performed at 25° C. with IgG concentrations typically ranging from 100 nM to 0.2 nM at a flow rate of 75 μL/min; data were collected for approximately 25 min and two 30-sec pulse of 1M NaCl, 50 mM NaOH was used to regenerate the surfaces. IgGs were also flowed over an uncoated cell and the sensorgrams from these blank runs subtracted from those obtained with EphA2-Fc-coupled chips. Data were fitted to a 1:1 Langmuir binding model. This algorithm calculates both the kₒₙ and the koff, from which the apparent equilibrium dissociation constant, KD, is deduced as the ratio of the two rate constants (koff/kₒₙ).

Experiment [16] has the same target. The experiment in a line: SPR (BIAcore 3000), EphA2-Fc coupled to CM5 chip (~500 RU), IgG in solution, 1:1 Langmuir fit. The method, then: as §2
For experiment [17], the target named is Human EphA2-Fc fusion protein (human EphA2 fused with the Fc portion of a human IgG1) (human) (UniProt P29317). The experiment in a line: single point capture ELISA, periplasmic extracts from 15 ml culture, 500 ng goat anti-human Fab.
For experiment [18] the target is unchanged. The experiment in a line: single point capture ELISA, periplasmic Fab on 500 ng goat anti-human Fab, biotinylated EphA2-Fc 300 ng/well.

T1 sequence (P29317 24-534 limits assumed): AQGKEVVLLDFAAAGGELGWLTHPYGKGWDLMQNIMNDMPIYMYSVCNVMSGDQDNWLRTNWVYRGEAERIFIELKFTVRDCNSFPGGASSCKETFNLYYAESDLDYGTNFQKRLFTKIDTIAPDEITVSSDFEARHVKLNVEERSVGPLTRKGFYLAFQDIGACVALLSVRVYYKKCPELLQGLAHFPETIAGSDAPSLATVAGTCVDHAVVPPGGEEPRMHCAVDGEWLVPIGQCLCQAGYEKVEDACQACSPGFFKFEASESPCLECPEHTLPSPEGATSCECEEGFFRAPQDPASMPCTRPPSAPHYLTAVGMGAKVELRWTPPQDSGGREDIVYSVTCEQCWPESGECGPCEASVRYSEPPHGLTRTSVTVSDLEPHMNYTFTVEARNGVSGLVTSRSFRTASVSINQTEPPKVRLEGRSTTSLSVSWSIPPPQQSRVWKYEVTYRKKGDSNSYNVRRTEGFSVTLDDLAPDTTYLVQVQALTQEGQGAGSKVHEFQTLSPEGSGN
Chain of Human EphA2-Fc fusion protein (human EphA2 fused with the Fc portion of a human IgG1) (human) (P29317 24-534 limits assumed): as above

irrelevant antibody (MEDI-493): the OD450 (background signal) in [1] is 0.2 OD450; in [2], 0.06 to 0.2 OD450; in experiment [3] it was 0.2 OD450; in experiment [4] it was 0.1 OD450; in experiment [5], 0.1 to 0.4 OD450; in experiment [6], 0.1 OD450. Moreover, the OD450 (background signal) in experiment [7] is 0.07 to 0.1 OD450; in [8] it was 0.3 OD450; in [9], 0.3 OD450; in experiment [10] it was 0.2 OD450.

The molecule “irrelevant antibody (background control of Example 2)” gave an OD450 (background signal) in experiment [11] of 0.3 OD450.

B1: VH-6H11/VL-8G7 (humanized) full length human IgG1 (antibody, V domains shown)
VH: EVQLVESGGGLVQPGGSLRLSCAASGFTFSDYSMNWVRQAPGKGLEWVAFIRNKANDYTTEYSASVKGRFTISRDNSKNTLYLQMNSLRAEDTAMYYCARYPRYHAMDSWGQGTLVTVSS
VL: EIVLTQSPATLSVSPGERATLSCRASQSISNNLHWYQQKPGKAPKSLIYYVFQSISGVPSRFSGSGSGTDFTLTINSLEAEDAATYYCQQSNSWPLTFGGGTKVDIK
notes: Human IgG1 / human kappa, expressed in HEK 293 cells
Regarding B1, the “fold avidity decrease against parental mAb B233” value (“fold avidity decrease” for short) in experiment [12] amounted to 6 fold. In addition, the Kd in [13] came to 1.9 nM. In experiment [14], this molecule came in with a koff of 0.00018 s⁻¹ and an on-rate constant (kon) of 96000 M⁻¹ s⁻¹.

B2: VH-7E8/VL-8G7 (humanized) full length human IgG1 (antibody, V domains shown)
VH: B1 VH with Q13K, P41S, A49G, N76D, R89K, A90T, M95V, A99T, R100T
VL: B1 VL
notes: as for B1
For the molecule B2, in [12], the “fold avidity decrease” value amounted to 160 fold. This molecule gave a Kd in experiment [13] of 48 nM. In experiment [14], the koff is 0.00045 s⁻¹ and the kon came to 9300 M⁻¹ s⁻¹.

B3: mAb EA2 (mouse anti-human EphA2 monoclonal antibody) (antibody, V domains shown)
VH: DVKLVESGGGLVKPGGSLKLSCAASGFTFSSYTMSWVRQTPEKRLEWVATISSGGTYTYYPDSVKGRFTISRDNAKNTLYLQMSSLKSEDTAMYYCTREAIFTYWGQGTLVTVSA
VL: DIKMTQSPSSMYASLGERVTITCKASQDINNYLSWFQQKPGKSPKTLIYRANRLVDGVPSRFSGSGSGQDYSLTISSLEYEDMGIYYCLKYDEFPYTFGGGTKLEIK
notes: Murine hybridoma antibody; also called EA2 (murine); parental mAb EA2
For the molecule B3, the affinity in experiment [15], expressed as Kd, was 5.94 nM. Besides, in [16], the koff came to 0.00307 s⁻¹ and the on-rate constant (kon) was 517000 M⁻¹ s⁻¹.

B4: VH-2G6/VL-12C8 Fab (framework-shuffled, fully humanized clone from library B) (Fab, from another filing, V domains shown)
VH: EVQLVESGGGVVRPGGSLRLSCAASGFTVSDYSMNWVRQAPGKGLEWIGFIRNKANDYTTEYSASVKGRFTISRDDSKNTLYLQMNSLKTEDTAVYYCTTYPRYHAMDSWGQGTMVTVSS
VL: AIQLTQSPSSLSASVGDRVTITCRASQSISNNLHWYLQKPGQSPQLLIYYVFQSISGVPSRFSGSGSGTDFTLTISSLQPEDFATYYCQQSNSWPLTFGGGTKLEIK
For B4, in experiment [17], the [specific OD450/background OD450] ratio turned out to be 40. Moreover, in experiment [18], the OD450 was determined as 2.8 OD450.

B5: VH-2G6/VL-12C8 (humanized) full length human IgG1 (antibody, V domains shown)
VH: B4 VH
VL: B4 VL
notes: as for B1
Regarding B5, the “fold avidity decrease” value in experiment [12] came out at 10 fold. The same molecule yielded a Kd in experiment [13] of 3 nM. In [14], this molecule had an off-rate constant (koff) of 0.00019 s⁻¹ and a kon of 64000 M⁻¹ s⁻¹.

B6: VH-4H5/VL-4H5 full length human IgG1 (antibody, V domains shown)
VH: QVQLLESGGGLVQPGGSLRLSCAASGFTFSSYTMSWVRQAPGQALEWMGTISSGGTYTYYPDSVKGRFTISRDNAKNSLYLQMNSLRAEDTAVYYCAREAIFTYWGRGTLVTVSS
VL: DIQLTQSPSSLSASVGDRVTITCKASQDINNYLSWYQQKPGQAPRLLIYRANRLVDGVPDRFSGSGYGTDFTLTINNIESEDAAYYFCLKYDVFPYTFGQGTKVEIK
notes: as for B1
On to B6, for which, in experiment [12], the “fold avidity increase against parental mAb EA2” value is 90 fold. Also, in experiment [15], binding was put at a Kd of 0.067 nM. In [16], this molecule yielded a koff of 6.6e-05 s⁻¹ and a kon of 980000 M⁻¹ s⁻¹.

B7: VH-4H5/VL-“corrected” 4H5 full length human IgG1 (antibody, V domains shown)
VH: B6 VH
VL: B6 VL with V93E
notes: Human IgG1 / human kappa, expressed in HEK 293 cells; also called 4H5 corrected
Consider B7, for which the “fold avidity increase against parental mAb EA2” value in experiment [12] is 4 fold. The dissociation constant (Kd) in experiment [15] turned out to be 1.4 nM. In [16], the koff is 0.00105 s⁻¹ and the on-rate (kon) stood at 750000 M⁻¹ s⁻¹.

B8: mAb B233 (mouse anti-human EphA2 monoclonal antibody) (antibody, V domains shown)
VH: EVKLVESGGGLVQPGGSLSLSCAASGFTFTDYSMNWVRQPPGKALEWLGFIRNKANDYTTEYSASVKGRFTISRDNSQSILYLQMNALRAEDSATYYCVRYPRYHAMDSWGQGTSVTVSS
VL: DIVLTQSPATLSVTPGDSVNLSCRASQSISNNLHWYQQKSHESPRLLIKYVFQSISGIPSRFSGSGSGTDFTLSINSVETEDFGMYFCQQSNSWPLTFGAGTKLELK
notes: Murine hybridoma antibody; also called B233 (murine); parental mAb B233
For the molecule B8, in [13], the affinity, expressed as Kd, was 0.4 nM. In experiment [14], this molecule had a koff of 0.00011 s⁻¹ and a kon of 280000 M⁻¹ s⁻¹.

B9: VH-233/VL-233 IgG (chimaeric form of mAb B233, full length human IgG1) (antibody, V domains shown)
VH: B8 VH
VL: B8 VL
notes: Human IgG1 / human kappa constant regions, expressed in HEK 293 cells; also called VH-B233/VL-B233 (chimeric); chimaeric B233
In experiment [13], B9 returned a Kd of 0.3 nM. Further, in [14], the off-rate constant (koff) was found to be 8e-05 s⁻¹ and the kon amounted to 240000 M⁻¹ s⁻¹.

These data come from patent publication US20060228350A1 (AstraZeneca / MedImmune, published 2006).
